We go through one molecule from US20070265199A1 (UNIVERSITY OF ROCHESTER, published 2007).

For test [1], the target named is T1, factor IXaβ (UniProt P00740 47-191; P00740 227-461).
T1 construct: Bought reagent
Briefly: factor Xa generation assay on non-activated platelets, factor IXa titrated with factor VIIIa. As for the experimental part:
(§1) Factor VIII cofactor activity, factor IXa-factor VIIIa affinity, and kinetic parameters were determined using factor Xa generation assays. Reactions were performed in the presence of either phospholipid vesicles, non-activated platelets, or platelets activated by SFLLRN-amide (50 μM).

In test [2] the target is T1, factor IXaβ. Briefly: factor Xa generation assay on phospholipid vesicles, factor IXa titrated with factor VIIIa. As for the experimental part: as §1
Test [3] addresses T1, factor IXaβ. The test can be described thus: factor Xa generation assay on activated platelets (SFLLRN-amide), factor IXa titrated with factor VIIIa. On the procedure: as §1

T1 sequence (P00740 47-191 limits assumed, form in doubt, chain 1 of 2): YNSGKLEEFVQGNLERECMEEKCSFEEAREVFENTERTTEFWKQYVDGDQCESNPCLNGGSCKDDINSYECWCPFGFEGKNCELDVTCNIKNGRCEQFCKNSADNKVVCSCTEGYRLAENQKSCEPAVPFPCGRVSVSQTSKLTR
T1 sequence (P00740 227-461 limits assumed, form in doubt, chain 2 of 2): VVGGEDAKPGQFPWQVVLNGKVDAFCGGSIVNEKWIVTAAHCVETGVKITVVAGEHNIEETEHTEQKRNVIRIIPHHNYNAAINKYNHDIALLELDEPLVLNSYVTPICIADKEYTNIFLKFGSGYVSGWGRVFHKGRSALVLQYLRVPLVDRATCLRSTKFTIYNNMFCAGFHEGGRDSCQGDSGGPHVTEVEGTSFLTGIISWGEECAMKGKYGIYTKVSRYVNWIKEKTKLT

B1: factor VIIIa E113A (thrombin-activated B-domainless factor VIII bearing Glu113Ala) (other)
chain 1: ATRRYYLGAVELSWDYMQSDLGELPVDARFPPRVPKSFPFNTSVVYKKTLFVEFTVHLFNIAKPRPPWMGLLGPTIQAEVYDTVVITLKNMASHPVSLHAVGVSYWKASEGAAYDDQTSQREKEDDKVFPGGSHTYVWQVLKENGPMASDPLCLTYSYLSHVDLVKDLNSGLIGALLVCREGSLAKEKTQTLHKFILLFAVFDEGKSWHSETKNSLMQDRDAASARAWPKMHTVNGYVNRSLPGLIGCHRKSVYWHVIGMGTTPEVHSIFLEGHTFLVRNHRQASLEISPITFLTAQTLLMDLGQFLLFCHISSHQHDGMEAYVKVDSCPEEPQLRMKNNEEAEDYDDDLTDSEMDVVRFDDDNSPSFIQIR
chain 2: SVAKKHPKTWVHYIAAEEEDWDYAPLVLAPDDRSYKSQYLNNGPQRIGRKYKKVRFMAYTDETFKTREAIQHESGILGPLLYGEVGDTLLIIFKNQASRPYNIYPHGITDVRPLYSRRLPKGVKHLKDFPILPGEIFKYKWTVTVEDGPTKSDPRCLTRYYSSFVNMERDLASGLIGPLLICYKESVDQRGNQIMSDKRNVILFSVFDENRSWYLTENIQRFLPNPAGVQLEDPEFQASNIMHSINGYVFDSLQLSVCLHEVAYWYILSIGAQTDFLSVFFSGYTFKHKMVYEDTLTLFPFSGETVFMSMENPGLWILGCHNSDFRNRGMTALLKVSSCDKNTGDYYEDSYEDISAYLLSKNNAIEPR
chain 3: SFQKKTRHYFIAAVERLWDYGMSSSPHVLRNRAQSGSVPQFKKVVFQEFTDGSFTQPLYRGELNEHLGLLGPYIRAEVEDNIMVTFRNQASRPYSFYSSLISYEEDQRQGAEPRKNFVKPNETKTYFWKVQHHMAPTKDEFDCKAWAYFSDVDLEKDVHSGLIGPLLVCHTNTLNPAHGRQVTVQEFALFFTIFDETKSWYFTENMERNCRAPCNIQMEDPTFKENYRFHAINGYIMDTLPGLVMAQDQRIRWYLLSMGSNENIHSIHFSGHVFTVRKKEEYKMALYNLYPGVFETVEMLPSKAGIWRVECLIGEHLHAGMSTLFLVYSNKCQTPLGMASGHIRDFQITASGQYGQWAPKLARLHYSGSINAWSTKEPFSWIKVDLLAPMIIHGIKTQGARQKFSSLYISQFIIMYSLDGKKWQTYRGNSTGTLMVFFGNVDSSGIKHNIFNPPIIARYIRLHPTHYSIRSTLRMELMGCDLNSCSMPLGMESKAISDAQITASSYFTNMFATWSPSKARLHLQGRSNAWRPQVNNPKEWLQVDFQKTMKVTGVTTQGVKSLLTSMYVKEFLISSSQDGHQWTLFFQNGKVKVFQGNQDSFTPVVNSLDPPLLTRYLRIHPQSWVHQIALRMEVLGCEAQDLY
notes: also called factor VIII E113A; Factor VIII:E113A
For the molecule B1, the Kd – broadly, the equilibrium constant for the complex coming apart – stood at 5.7 nM with factor IXaβ [1], 5 nM with factor IXaβ [2] and 6 nM in the test with factor IXaβ [3].
